Data published in patent EP4671273A1 (Anaveon AG, dated 2025).

Key:
[1] = target: T1, human PD-1 (#PD1-H82E4, AcroBiosystems) (human, UniProt Q15116 25-167); assay: SPR, PD-1 on captured IgG1
T1 construct: bought

[2] = target: T2, cynomolgus PD-1 (#PD1-C52H5, AcroBiosystems) (cynomolgus monkey, UniProt B0LAJ3 25-170); assay: SPR, PD-1 on captured IgG1
T2 construct: bought; also called cynomolgus monkey PD-1; not shown: the vendor's tag on the recombinant protein (AcroBiosystems #PD1-C52H5)
T2 sequence (B0LAJ3 entry or part of it limits assumed, form in doubt): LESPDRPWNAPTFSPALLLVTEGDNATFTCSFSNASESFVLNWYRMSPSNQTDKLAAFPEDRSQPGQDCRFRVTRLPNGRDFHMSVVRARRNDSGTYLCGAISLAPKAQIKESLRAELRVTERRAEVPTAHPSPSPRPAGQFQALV

T1 sequence (Q15116 25-167 limits assumed): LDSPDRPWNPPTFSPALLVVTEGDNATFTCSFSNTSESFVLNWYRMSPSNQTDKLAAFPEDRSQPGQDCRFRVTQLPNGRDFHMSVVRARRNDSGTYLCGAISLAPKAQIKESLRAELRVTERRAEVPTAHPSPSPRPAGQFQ

| Binder | Kd [1] | koff [1] | kon [1] | Kd [2] | koff [2] | kon [2] |
| --- | --- | --- | --- | --- | --- | --- |
| JPK663 (antibody, human IgG1, V domains shown, human IgG1) VH: VQLVQSGAEVKKPGASVKVSCKASGYTFTNFYIHWVRQAPGQGLEWMGSIYPNYGITAYNQKFKDRVTMTVDTSTSTAYMELRSLRSDDTAVYYCARGYSYAMDYWGQGTTVTVSS VL: DIQMTQSPSSVSASVGDRVTATCSASQGISGDLNWYQQKPGKAPKLLIYHTSQLHSDVPSRFSGSGSGTDFTLTISSLQPEDFATYYCQGYSKDLLTFGGGTKLEIK | 0.429 nM | 0.000144 s⁻¹ | 336000 M⁻¹ s⁻¹ | 0.246 nM | 0.000124 s⁻¹ | 504000 M⁻¹ s⁻¹ |
| QGA408 (antibody, human IgG1, V domains shown, human IgG1) VH: VQLVQSGAEVKKPGASVKVSCKASGYTFTNFYIHWVRQAPGQGLEWMGSIYPNYGITAFNQKFKDRVTMTVDTSTSTAYMELRSLRSDDTAVYYCARGYSYAMDYWGQGTTVTVSS VL: DIQMTQSPSSVSASVGDRVTITCSASQGISGDLNWYQQKPGKAPKLLIYHTSQLHSDVPSRFSGSGSGTDFTLTISSLQPEDFATYYCQGYSKDLLTFGGGTKLEIK | 0.48 nM | 0.000208 s⁻¹ | 434000 M⁻¹ s⁻¹ | 0.328 nM | 0.000182 s⁻¹ | 555000 M⁻¹ s⁻¹ |
| OKM590 (antibody, human IgG1, V domains shown, human IgG1) VH: VQLVQSGAEVKKPGASVKVSCKASGYTFTNFYIHWVRQAPGQGLEWMGSIYPNYGITAYNQKFKDRVTMTVDTSTSTAYMELRSLRSDDTAVYYCARGYSYAMDVWGQGTTVTVSS VL: DIQMTQSPSSVSASVGDRVTITCSASQGISGDLNWYQQKPGKAPKLLIYHTSQLHSDVPSRFSGSGSGTDFTLTISSLQPEDFATYYCQGYSKDLLTFGGGTKLEIK | 0.955 nM | 0.00039 s⁻¹ | 409000 M⁻¹ s⁻¹ | 0.627 nM | 0.000345 s⁻¹ | 551000 M⁻¹ s⁻¹ |
| NRT742 (antibody, human IgG1, V domains shown, human IgG1) VH: VQLVQSGAEVKKPGASVKVSCKASGYTFTNFYIHWVRQAPGQGLEWMGSIYPNYGITAYNQKFKDRVTMTVDTSTSTAYMELRSLRSDDTAVYYCARGYSYAMDYWGQGTTVTVSS VL: DIQMTQSPSSVSASVGDRVTITCSASQGISGDLNWYQQKPGKAPKLLIYHASQLHSDVPSRFSGSGSGTDFTLTISSLQPEDFATYYCQGYSKDLLTFGGGTKLEIK | 0.955 nM | 0.000406 s⁻¹ | 426000 M⁻¹ s⁻¹ | 0.541 nM | 0.000297 s⁻¹ | 549000 M⁻¹ s⁻¹ |

The remaining binders from weak to strong by Kd [1], led by results:

| Kd [1] | koff [1] | kon [1] | Kd [2] | koff [2] | kon [2] | Binder |
| --- | --- | --- | --- | --- | --- | --- |
| 1.21 nM | 0.000536 s⁻¹ | 444000 M⁻¹ s⁻¹ | 0.785 nM | 0.000436 s⁻¹ | 555000 M⁻¹ s⁻¹ | RZL961 (antibody, human IgG1, V domains shown, human IgG1) VH: VQLVQSGAEVKKPGASVKVSCKASGYTFTNFYIHWVRQAPGQGLEWMGSIYPQYGITAYNQKFKDRVTMTVDTSTSTAYMELRSLRSDDTAVYYCARGYSYAMDYWGQGTTVTVSS VL: DIQMTQSPSSVSASVGDRVTITCSASQGISGDLNWYQQKPGKAPKLLIYHTSQLHSDVPSRFSGSGSGTDFTLTISSLQPEDFATYYCQGYSKDLLTFGGGTKLEIK |
| 0.521 nM | 0.000189 s⁻¹ | 363000 M⁻¹ s⁻¹ | 0.327 nM | 0.00016 s⁻¹ | 489000 M⁻¹ s⁻¹ | PEV057 (antibody, human IgG1, V domains shown, human IgG1) VH: VQLVQSGAEVKKPGASVKVSCKASGYTFTNFYIHWVRQAPGQGLEWMGSIYPNYGITAYNQKFKDRVTMTVDTSTSTAYMELRSLRSDDTATYYCARGYSYAMDYWGQGTTVTVSS VL: DIQMTQSPSSVSASVGDRVTITCSASQGISGDLNWYQQKPGKAPKLLIYHTSQLHSDVPSRFSGSGSGTDFTLTISSLQPEDFATYYCQGYSKDLLTFGGGTKLEIK |
| 0.506 nM | 0.000166 s⁻¹ | 329000 M⁻¹ s⁻¹ | 0.362 nM | 0.000179 s⁻¹ | 495000 M⁻¹ s⁻¹ | KOB135 (antibody, human IgG1, V domains shown, human IgG1) VH: VQLVQSGAEVKKPGASVKVSCKASGYTFTNFYIHWVRQAPGQGLEWMGSIYPNYGITAYNQKFKDRVTMTVDTSTSTAYMELRSLRSDDTAVYYCARGYSYAMDYWGQGTTVTVSS VL: DIQMTQSPSSVSASVGDRVTITCSASQGISGDLNWYQQKPGKAPKLLIYHTSQQHSDVPSRFSGSGSGTDFTLTISSLQPEDFATYYCQGYSKDLLTFGGGTKLEIK |
